Experimental data published in publication PMC3717379 (Biochemistry, 2013).
Read-outs that look alike come from different tables or passages of the source. No end group written: not given here. IANBD = IANBD fluorescent probe (code IAN) attached to the cysteine

Key:
[1] = target: monocysteine SecA mutant SecA-402C (E. coli) (UniProt P10408); test: FRET or BRET
[2] = target: monocysteine SecA mutant SecA-59C (E. coli) (UniProt P10408); test: FRET or BRET
SecA (Escherichia coli) [3] = target: SecA (Escherichia coli) (UniProt P10408); conditions: cited from earlier work
SecA (Escherichia coli) [4] = target: SecA (Escherichia coli) (UniProt P10408); conditions: cited from earlier work; remark: listed apart in the source
[5] = target: monocysteine SecA mutant SecA-696C (E. coli) (UniProt P10408); test: FRET or BRET
[6] = target: SP22, 22 residue long E. coli alkaline phosphatase signal peptide with cysteine at position 22 (E. coli); test: fluorescence polarisation
[7] = target: monocysteine SecA mutant SecA-340C (E. coli) (UniProt P10408); test: FRET or BRET
wildtype SecA = wildtype SecA (Escherichia coli, UniProt P10408); test: Fluorescence anisotropy binding of IAN-labeled signal peptide to wildtype SecA
SecA-340C = SecA-340C (Escherichia coli, UniProt P10408, C885S/C887S/C896S/C98S/T340C); type: binding
SecA-506C = SecA-506C (Escherichia coli, UniProt P10408, C885S/C887S/C896S/C98S/M506C); type: binding
SecA-458C = SecA-458C (Escherichia coli, UniProt P10408, C885S/C887S/C896S/C98S/S458C); type: binding
[8] = target: monocysteine SecA mutant SecA-506C (E. coli) (UniProt P10408); test: FRET or BRET
[9] = target: monocysteine SecA mutant SecA-458C (E. coli) (UniProt P10408); test: FRET or BRET
[10] = target: wildtype SecA (Escherichia coli) (E. coli, UniProt P10408 1-901); test: fluorescence polarisation

monocysteine SecA mutant SecA-59C (from UniProt P10408 1-901) (natural protein)
E FRET (IAE-IAN dye pair) [1]: 0.4
E FRET (AF568-AF647 dye pair) [2]: 1
E FRET (IAE-IAN dye pair) [2]: 0.38

SecA (from UniProt P10408)
Kd (SecA (Escherichia coli) [3]): 2200 nM
Kd (SecA (Escherichia coli) [4]): 1 nM

monocysteine SecA mutant SecA-696C (from UniProt P10408 1-901) (natural protein)
E FRET (AF488-AF568 dye pair) [5]: 0.23
E FRET with SP22 (AF568-AF647 dye pair) [5]: 0.42
E FRET with SP41 (AF568-AF647 dye pair) [5]: 0.41
Kd [6]: 2500 nM

monocysteine SecA mutant SecA-340C (from UniProt P10408 1-901) (natural protein)
E FRET (AF488-AF568 dye pair) [7]: 0.78
E FRET (IAE-IAN dye pair) [7]: 0.12
E FRET with SP22 (AF488-AF568 dye pair) [7]: 0.64
E FRET with SP41 (AF488-AF568 dye pair) [7]: 0.23
Kd [6]: 1100 nM

MCKQSTIALALLPLLYTPVTKARTPEMPVLENRAAQGDITA-NH2 [SP41]
Kd (wildtype SecA): 6200 ± 800 nM
Kd (SecA-340C): 6200 ± 4300 nM
Kd (SecA-506C): 6300 ± 1000 nM
Kd (SecA-458C): 4800 ± 600 nM

monocysteine SecA mutant SecA-506C (from UniProt P10408 1-901) (natural protein)
E FRET with SP22 (AF568-AF647 dye pair) [8]: 0.67
E FRET with SP41 (AF568-AF647 dye pair) [8]: 0.69
Kd [6]: 1500 nM

MKQSTIALALLPLLFTPVTKAC-NH2 [SP22]
Kd (SecA-340C): 1100 ± 400 nM
Kd (SecA-506C): 1500 ± 700 nM
Kd (SecA-458C): 3000 ± 1700 nM

monocysteine SecA mutant SecA-458C (from UniProt P10408 1-901) (natural protein)
E FRET with SP22 (AF488-AF568 dye pair) [9]: 0.45
E FRET with SP41 (AF488-AF568 dye pair) [9]: 0.45
Kd [6]: 3000 nM

monocysteine SecA mutant SecA-402C (from UniProt P10408 1-901) (natural protein)
E FRET (AF488-AF568 dye pair) [1]: 0.31
E FRET (IAE-IAN dye pair) [1]: 0.19

MKQSTIALALLPLLFTPVTKAC(IANBD)-NH2 [SP22, 22 residue long E. coli alkaline phosphatase signal peptide with cysteine at position 22]
Kd [10]: 1400 ± 200 nM
